# Laboratory results as given in the supplement of paper PMC9732359.
# ± gives the uncertainty stated by the source.
# Assay: protein stability index of a GFP-peptide fusion (yeast GPS) (PSI 1-4); higher = more stable; sorted into four equal gates, so the index is relative within each strain
# Details: doa10∆
# In short: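 Yeast carrying a pooled library were grown to mid-log phase in leucine-free medium. Each library plasmid expresses Cherry and has a tiled 17-residue yeast protein peptide fused downstream of GFP. Cells were sorted into four equal gates by GFP/Cherry ratio, and plasmids from each gate were PCR-amplified, Illumina-sequenced and assigned to strains by barcode. Summing, across gates, the read frequency times the gate number gave each peptide's protein stability index.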
row,Sequence,protein stability index
1,AAAYSHELPRYGITHGL [RPL5],2.64 ± 0.081
2,AAGANVDNVWADVYAKA [RPP1B],3.2 ± 0.096
3,AAKIIYLAHEDNKEKDF [PRE10],2.81 ± 0.19
4,AALGEVASMELKPTNDM [SIR2],3.46 ± 0.13
5,AALIASKVYYNLGEYES [RPN2],1.88 ± 0.077
6,AAPPSTNFEILNEMLNT [DIS3],2.9 ± 0.078
7,AAPSAADIKAVVESVGA [RPP2B],3.08 ± 0.1
8,AASAAGYDRHITIFSPE [SCL1],2.86 ± 0.11
9,ACSSSGRETILSNFNAD [SIR3],2.39 ± 0.037
10,ADAQIQRETYDSNESDD [YLR335W/NUP2],2.07 ± 0.22
11,ADCQAELTKTKSSLYSA [YIL149C/MLP2],2.6 ± 0.055
12,ADEDDEDAKYVINLKQI [RPT1],1.99 ± 0.13
13,ADESKMAKLNECPLDPG [RET1],2.64 ± 0.083
14,ADINKNFLSVITNKHQE [RPN2],1.93 ± 0.074
15,ADKKDDSESNSEPIDLI [ITC1],3.05 ± 0.079
16,ADNKEDVKKPFSFGTSQ [YLR335W/NUP2],3.42 ± 0.1
17,ADNSGARNLYIIAVKGS [RPL23A],1.55 ± 0.049
18,ADNTKDKEKEENNDDAL [MED4],2.86 ± 0.14
19,ADVFRRCLVAVIQQDKY [SRP72],1.6 ± 0.11
20,ADVSIKSILQEIRRSLS [POP5],1.59 ± 0.08
21,ADVTHFVKPGTALDAEG [DIS3],2.9 ± 0.094
22,AEDVALNEQVKKFFLNN [NAS6],2.12 ± 0.058

row,Sequence,protein stability index
1,AEEAAAEEEEESDDDMG [RPP0],3.62 ± 0.12
2,AEEFDFNVPVVSKQLGN [YAR002W/NUP60],2.47 ± 0.18
3,AEEIGVEHLLRDVRDQA [RPN8],3.2 ± 0.14
4,AEFKKENLADLDYQIGN [LIN1],3.29 ± 0.086
5,AEKKVVRLTSRQRGRIA [RPL17A],2.88 ± 0.18
6,AELDDCRGVSENVILGQ [RPO21],3.64 ± 0.14
7,AELKLAGEFGLKNKKEI [RPS9A],3.08 ± 0.11
8,AETDYVDPKRLAMVIIK [DSN1],3.13 ± 0.066
9,AETQGSKVVIDSIIDNI [IRR1],2.79 ± 0.098
10,AFGVSVAFLDNDLGKFI [RPN7],3.17 ± 0.086
11,AFHTAVLRLNAIPLLKV [NUT1],1.94 ± 0.059
12,AFNQVEIRPEMLGHYLG [RPS15],2.92 ± 0.12
13,AFQLADGIHYILNHIGQ [PRP8],2.71 ± 0.14
14,AFTCFCIKKIMENNEPA [SRB8],2.21 ± 0.062
15,AFVSVYSKNNPNLLFSM [PRP8],1.93 ± 0.063
16,AGANDTSNNETNNGNDD [GRR1],2.8 ± 0.048
17,AGDWKYDRQLSSLFLDG [FAS2],2.16 ± 0.057
18,AGERKIPHDLNFLQESY [TAF14],2.83 ± 0.086
19,AGGPDMTTPQNISSSQQ [DSN1],2.83 ± 0.044
20,AGGQRIVDDYWESLAKK [SWP82],1.84 ± 0.19
21,AGIKTRKFVFNPPKPRK [CYT1],3.06 ± 0.06

# Same assay, conditions: pdr5∆
row,Sequence,protein stability index
1,AAAYSHELPRYGITHGL [RPL5],2.93 ± 0.064
2,AAGANVDNVWADVYAKA [RPP1B],3.16 ± 0.14
3,AAKIIYLAHEDNKEKDF [PRE10],3.18 ± 0.098
4,AALGEVASMELKPTNDM [SIR2],3.33 ± 0.12
5,AALIASKVYYNLGEYES [RPN2],1.6 ± 0.066
6,AAPPSTNFEILNEMLNT [DIS3],2.83 ± 0.11
7,AAPSAADIKAVVESVGA [RPP2B],3.06 ± 0.073
8,AASAAGYDRHITIFSPE [SCL1],2.76 ± 0.075
9,ACSSSGRETILSNFNAD [SIR3],2.16 ± 0.04
10,ADAQIQRETYDSNESDD [YLR335W/NUP2],3.38 ± 0.21
11,ADCQAELTKTKSSLYSA [YIL149C/MLP2],2.59 ± 0.055
12,ADEDDEDAKYVINLKQI [RPT1],2.66 ± 0.16
13,ADESKMAKLNECPLDPG [RET1],2.74 ± 0.095
14,ADINKNFLSVITNKHQE [RPN2],2.11 ± 0.06
15,ADKKDDSESNSEPIDLI [ITC1],3.32 ± 0.087
16,ADNKEDVKKPFSFGTSQ [YLR335W/NUP2],3.09 ± 0.096
17,ADNSGARNLYIIAVKGS [RPL23A],1.63 ± 0.055
18,ADNTKDKEKEENNDDAL [MED4],3.04 ± 0.11
19,ADVFRRCLVAVIQQDKY [SRP72],2.17 ± 0.066
20,ADVSIKSILQEIRRSLS [POP5],2.66 ± 0.083
21,ADVTHFVKPGTALDAEG [DIS3],3.33 ± 0.2

row,Sequence,protein stability index
1,AEDVALNEQVKKFFLNN [NAS6],2.18 ± 0.069
2,AEEAAAEEEEESDDDMG [RPP0],2.94 ± 0.15
3,AEEAIVNAMRVLYYRDA [PRE4],3.33 ± 0.17
4,AEEFDFNVPVVSKQLGN [YAR002W/NUP60],1.35 ± 0.17
5,AEFKKENLADLDYQIGN [LIN1],3.32 ± 0.068
6,AEKKVVRLTSRQRGRIA [RPL17A],1.28 ± 0.074
7,AELDDCRGVSENVILGQ [RPO21],3.68 ± 0.16
8,AELKLAGEFGLKNKKEI [RPS9A],3.21 ± 0.15
9,AETDYVDPKRLAMVIIK [DSN1],3.35 ± 0.074
10,AETQGSKVVIDSIIDNI [IRR1],3.26 ± 0.07
11,AFGVSVAFLDNDLGKFI [RPN7],3.16 ± 0.1
12,AFHTAVLRLNAIPLLKV [NUT1],2.43 ± 0.053
13,AFNQVEIRPEMLGHYLG [RPS15],3.09 ± 0.19
14,AFQLADGIHYILNHIGQ [PRP8],2.97 ± 0.16
15,AFTCFCIKKIMENNEPA [SRB8],2.64 ± 0.077
16,AFVSVYSKNNPNLLFSM [PRP8],2.74 ± 0.058
17,AGANDTSNNETNNGNDD [GRR1],2.23 ± 0.066
18,AGDWKYDRQLSSLFLDG [FAS2],2.81 ± 0.065
19,AGERKIPHDLNFLQESY [TAF14],3 ± 0.079
20,AGGPDMTTPQNISSSQQ [DSN1],3.04 ± 0.04
21,AGGQRIVDDYWESLAKK [SWP82],2.42 ± 0.092
